Test: soluble on expression in E. coli; label from the status in PepcDB or PDB records

Row | Sequence | soluble on expression in E. coli
1 | SLPNASRVVIVAGEESGDHHAAELVKQLKAVYPDLEISGIGGKHLRAAGVHLISDLTRYAVTGLTEIIPFLKIFRKAFQDIKQHLSTQKPDLLILVDYPAFNLRLAKYAKKKLGLKIIYYISPQIWAWKGKRIHLIKDCIDKMAVIFPFEKTIYENAGVPVSFVGHPLVKKIAAAKDKHSSRTSLGLPLNEPIIALLPGSRHSEIERHIPILVNTAKLLTLDSPKLRFVVPIAGTINPDKVKAYFSNQNLTVTFIQGQAIECMSAADFVIVASGTASLECALLEKPMCIIYKSSFLTYVAAMYFIKVKFLGLCNLLANKMMVPEFLQYDCNAIELSRYISNFHNNPNQPESMINQLAKLKESLSSSQADCSLFDLVVAELPEKNA | not soluble
2 | SQPDHGRLSPPEAPDRPTISTASETSVYVTWIPRGNGGFPIQSFRVEYKKLKKVGDWILATSAIPPSRLSVEITGLEKGISYKFRVRALNMLGESEPSAPSRPYVVSG | soluble
3 | SSRVTYPLRKMREGAQDLAKGKFDTKIPILTQDEIGELATAFNQMGRQLNFHINALNQEKEQLSNILSSMADGVITINIDGTILVTNPPAERFLQAWYYEQNMNIKEGDNLPPEAKELFQNAVSTEKEQMIEMTLQGRSWVLLMSPLYAESHVRGAVAVLRDMTEERRLDKLREDFIANVSHELRTPISMLQGYSEAIVDDIASSEEDRKEIAQIIYDESLRMGRLVNDLLDLARMESGHTGLHYEKINVNEFLEKIIRKFSGVAKEKNIALDHDISLTEEEFMFDEDKMEQVFTNLIDNALRHTSAGGSVSISVHSVKDGLKIDIKDSGSGIPEEDLPFIFERFYKADKARTRGRAGTGLGLAIVKNIVEAHNGSITVHSRIDKGTTFSFYIPTKR | not soluble
4 | MERVSITERPDWREKAHEYGFNFHTMYGEPYWCEDAYYKLTLAQVEKLEEVTAELHQMCLKVVEKVIASDELMTKFRIPKHTWSFVRQSWLTHQPSLYSRLDLAWDGTGEPKLLENNADTPTSLYEAAFFQWIWLEDQLNAGNLPEGSDQFNSLQEKLIDRFVELREQYGFQLLHLTCCRDTVEDRGTIQYLQDCATEAEIATEFLYIDDIGLGEKGQFTDLQDQVISNLFKLYPWEFMLREMFSTKLEDAGVRWLEPAWKSIISNKALLPLLWEMFPNHPNLLPAYFAEDDHPQMEKYVVKPIFSREGANVSIIENGKTIEAAEGPYGEEGMIVQQFHPLPKFGDSYMLIGSWLVNDQPAGIGIREDRALITQDMSRFYPHIFVE | soluble
5 | VSLEDYNLSEDLKVRLDSAEGIFVSGAPGSGKSTFVSALAERYKNMDKIVKTMESPRDLQVDEEITQYAPLEGSMEKTCDILLLVRPDYTIYDEVRKTKDFEIFADMRMAGVGMVGVVHASKAIDSIQRLIGRVELGIIPQIVDTVVFIENGKIGKVYEVEFNVKVPH | not soluble
6 | MRSLPIFPDLRAFLDWCARKGDLSRIAEPVSLRHETTAVASKILRGGGPVLRFESLRDTSATMPLVANLFGTRERVAAGLGLGLEQIPELGAFLAALRAPAPVAGMRDALSRWPQLQAALNTRAKIVRSAEAQEVVHEGAAVDLGMIPVPTCWPGDAGPLVTWPVVLTRPHGTSAEETLHYNAGVYRAQVIGRDRLIMRWLAHRGGAGHCRSWMRAGEPMPVALALGCDPALLLAAALPLPEQVSELTFSGVLRGARTPLVAGRTVPLMVPATAEIVVEGWVHPGDMAPEGPFGDHTGYYNSVEDFPVLRVSAITHRKDPLYLTTHTGRPPDEPSVIGEVFNDLAMPVFRQQIPEVKDLYLPPAACSYRIAIVSIDKRYPGQARRVMMALWGMLAQFSYTKMVIVVDEDINPRDWDDVAWAMATRMDPSRDVVLLEKTPMDYLDFASPEPGLAGKIGIDATNKIGPETHREWGEVMTQSPEAEAFADRLIAKLRIGALEHHHHHH | not soluble
7 | MGSSHHHHHHGGTGENLYFQGGSGQQQPRPVVAQYAYIELLPLRYTGPAPPPAPACMDPTPDEQYRRGVAEKRAALKQKEARRQMSSSGSGMLASLKSAVSQAVMTMEKGAADVSTRTESQVRQLEYQYDCDRFNLHFHELAENGEVLLADYRCSAMHSGLRVNGHVQITPHYLCFLAETTSSIAKTTDAVMGVFVAARHPTSANDEPRNRPVGIKQVIALADIVSIQPSVVLESIGGQAPFFMLLPAPTVRPTALQLYTQDSKLYQFMNFESLVSRATVALNDVVKGTALDQAYNYLDHAWRDTVNLRSKDV | not soluble
8 | MAMSIELRTKYGQIDISNEVIAMVAGGAAVDCYGIVGSKNQIKDGLTEILRKENFSRGVQVRQEGEQIHIDMYIIVSYGTKISEVAHNVQTKVKYTVNQTIGLAVDSVNIYVQGVRVTNPLEHHHHHH | not soluble
9 | MGSDKIHHHHHHVTALSIIKEAEHSLQMLFNELEEIAYTNQVRVIEAFHKHRVREYYFYPSTGYGYGDSGRDALEDIFADIFGTEDALVRSQVVSGTHAISACLFALLRPGDELISLTGSPYDTLCRIIGHEEKSPGTLIDKGIKYSEVDLDERGKPDLTAIAAAIKDTSRMVLIQRSRGYKTRPPVDLDTIAAITKLVKARNPATIVMLDNCYGEFTAVQEPGHYGVDIIAGSLIKNPGGGLIPSGGYIAGNQDLIEQLAFHLTAPGLGKELGASLLDKRIMYQGLFLAPHTVLQALKGAVLLAYVFEEHGYEVFPRWNEKRSDIVQAVKLRDAAEVLRFCQEVQNASPVDSDVTLEYGELPAYRDKIVMAAGTFVQGSSIELSCDAPLRSPHCVFLQGGLSYEHCRFLLQRLLDRFLLANA | not soluble
10 | MGFWCRMSENQEQEEVITVRVQDPRVQNEGSWNSYVDYKIFLHTNSKAFTAKTSCVRRRYREFVWLRKQLQRNAGLVPVPELPGKSTFFGTSDEFIEKRRQGLQHFLEKVLQSVVLLSDSQLHLFLQSQLSVPEIEACVQGRSTMTVSDAILRYAMSNCGWAQEERQSSSHLAKGDQPKSCCFLPRSGRRSSPSPPPSEEKDHLEVWAPVVDSEVPSLESPTLPPLSSPLCCDFGRPKEGTSTLQSVRRAVGGDHAVPLDPGQLETVLEK | soluble
11 | MSEPIDILIAGAGIGGLSCALALHQAGIGKVTLLESSSEIRPLGVGINIQPAAVEALAELGLGPALAATAIPTHELRYIDQSGATVWSEPRGVEAGNAYPQYSIHRGELQMILLAAVRERLGQQAVRTGLGVERIEERDGRVLIGARDGHGKPQALGADVLVGADGIHSAVRAHLHPDQRPLSHGGITMWRGVTEFDRFLDGKTMIVANDEHWSRLVAYPISARHAAEGKSLVNWVCMVPSAAVGQLDNEADWNRDGRLEDVLPFFADWDLGWFDIRDLLTRNQLILQYPMVDRDPLPHWGRGRITLLGDAAHLMYPMGANGASQAILDGIELAAALARNADVAAALREYEEARRPTANKIILANREREKEEWAAASRPKTEKSAALEAITGSYRNQVERPRLEHHHHHH | soluble
12 | MIKRFLEDTTDDGELSKFVKDFSGNASCHPPEAKTWASRPQVPEPRPQAPDLYDDDLEFRPPSRPQSSDNQQYFCAPAPLSPSARPRSPWGKLDPYDSSEDDKEYVGFATLPNQVHRKSVKKGFDFTLMVAGESGLGKSTLVNSLFLTDLYRDRKLLGAEERIMQTVEITKHAVDIEEKGVRLRLTIVDTPGFGDAVNNTECWKPVAEYIDQQFEQYFRDESGLNRKNIQDNRVHCCLYFISPFGHGLRPLDVEFMKALHQRVNIVPILAKADTLTPPEVDHKKRKIREEIEHFGIKIYQFPDCDSDEDEDFKLQDQALKESIPFAVIGSNTVVEARGRRVRGRLYPWGIVEVENPGHCDFVKLRTMLVRTHMQDLKDVTRETHYENYRAQCIQSMTRLVVKERNRNKLTRESGTDFPIPAVPPGTDPETEKLIREKDEELRRMQEMLHKIQKQMKENY | not soluble
13 | GMTNHNNSGKKKVAILIEQAVEDTEFIIPCNGLKQAGFEVVVLGSRMNEKYKGKRGRLSTQADGTTTEAIASEFDAVVIPGGMAPDKMRRNPNTVRFVQEAMEQGKLVAAVCHGPQVLIEGDLLRGKQATGFIAISKDMMNAGADYLDEALVVDGNLITSREPGDLAIFTTAILSRLGYGGKDAALPDEKDRNAEWWKLADAWGGSTKGDIVRGLNTALGGERYSLEALEKYTEKESDVEAKALFQEMITNKQRHIEYLETYLTRLGEKPSLSANIANQYAKVKTALTGSDDIYQIRSALGDIQTGIGDIGNLCAMYTDPIATAIFKEIYKDLVKYEQRLVSLYRTRTNATVQPPKPTTGAAVSM | soluble
14 | MPSIRLADLAQQLDAELHGDGDIVITGVASMQSAQTGHITFMVNPKYREHLGLCQASAVVMTQDDLPFAKSAALVVKNPYLTYARMAQILDTTPQPAQNIAPSAVIDATAKLGNNVSIGANAVIESGVELGDNVIIGAGCFVGKNSKIGAGSRLWANVTIYHEIQIGQNCLIQSGTVVGADGFGYANDRGNWVKIPQIGRVIIGDRVEIGACTTIDRGALDDTIIGNGVIIDNQCQIAHNVVIGDNTAVAGGVIMAGSLKIGRYCMIGGASVINGHMEICDKVTVTGMGMVMRPITEPGVYSSGIPLQPNKVWRKTAALVMNIDDMSKRLKSLERKVNQQD | soluble
15 | MPKFVVIELNDDAATIDLLSYCVKKNFERVSLLTRLEDHPYLRDDQDVVQDDTQSQGTDGMLLQLNDEERQRLMKMISTPGPQTLSMERIQMAPGQGQHILQQHQIPSTSSYTNNSFIYIKSDPQYKDEPQQQSNQFDATVNSVAHGQAGLSTLEMFACNGSPNGGDVLRRKTPSRKAEDSIKATCKVCGHDVMYSPQRTWNLMRHVWIMHQSSKPNQCSICGYSHIKPYVRKHIESQHKHDSNATIIDLKSPELEAEWSQLLDQCFGVTYRKWKHHKEDTQHTVFAAGDEDYGHEHHFSPEEDVMTTL | not soluble
16 | MTGVRQDAWTKEEDELLANVVLQYIREGGTQLEAFAEVGRRLSRTAAACGFRWNSCVRKQYKEEIEQAKQERKMRKKETPSTKESEGQAKVETAVKSHLSWAEVLAFLQAEEQKARDARRTADENRALKNDMEQLQQMVTKLQMEKESLQKQLAAIQEEYKTLLSIMERARKMVTDSGKPAPNAVAEGVDEG | not soluble
17 | MGHHHHHHSHANSIDLIGYVHQPVQFDSTLDGKFWAGTVISHEPSSDSKSESDSSSNFWIPVLFEGDLAHTANSYLKKNDRVHITGQILGDVIQSGANSDQAHVQLFKSFHGSFSHQVMVRD | not soluble
18 | MGSDKIHHHHHHMEIVFVYDAVYPWTKGGVERRLHEVGRRLSNEHNVKWLCVGWWGKEKRIQEGVELIPVCKAQQLYSRGRRTIREAMIFAASLLKKSRIKADVIDCQVFPYLSVFPFATRKELVLTWHEFWGDYWYEYLGKAGFFGKAVERIVAKLKARTIAVSETTRKALESLGIRATVIPNGVDFPRISEIPASSEEWDVIFVGRLIREKNLELLFDAMKLLPELNCLVVGDGPERERLSKIAPANVDFGGSLGYEEVISMMKSSKVFAIPSRREGFGISALEANACGLPVVTIRHQMNAVVEIAEKTGFVAEPHARDFAEKIRLALEMRREMREKCINFAKNFDWEVIARRLEEFYEGVHSPPNEGRAE | not soluble
19 | MQFYRRLTAIKAISFDLDDTLYNNRPIMQSVEQQMAHYFTEKFAILLPELLVEPKQVFNRRFWAPYRQQAIKAHQDISHDVVRLRFESYRLGLLAHNLSAEAARKEAQAGLDYFINLRSDFTVPKESHELLASLSKAFPLVSISNGNVDTRALGIDHYFQHIYHAGFQTGNCHDESEHLLKQKPETDMFSLVCQQLDILPEQLLHVGDCGFADIHGALNAGCQTAWLPQYGVGKSLQQIPHIELSLVSDLSQLIRKA | not soluble
20 | SMFRDQVGVLAGWFKGWNECEQTVALLSLLKRVSQTQARFLQLCLEHSLADCAELHVLEREANSPGIINQWQQESKDKVISLLLTHLPLLKPGNLDAKVEYMKLLPKTLAHSIEHNQHIEESRQLLSYALIHPATSLEDRSALAMWLNHLEDRTSTSFGGQNRGRSDSVDYGQTHYYHQRQNSDDKLNGWQNSRDSGICINASNWQDKSMGCENGHVPLYSSSSVPTTINTIGTSTSTSKFPGIPLT | soluble
